From US20240327884A1, “ATP-PRT VARIANT WITH REDUCED FEEDBACK INHIBITION BY HISTIDINE, AND HISTIDINE-PRODUCING STRAIN EXPRESSING SAME” (priority 2020, published 2024)

Target: T1, ATP phosphoribosyltransferase (Escherichia coli, UniProt P60757, E271K/H232T/R250H/S288P/T252L)
T1 construct: made in house; supernatant of sonicated cells
Type: biochemical, E. coli
Conditions: comparison of hisG_WT, hisG_SDM4, hisG_SDM7
Method: Each strain was cultured under conditions of 30° C. and 180 rpm. When the OD600 reached 0.6, ATP-PRT expression was induced with 1 mM IPTG (final concentration) and additional culture was performed for about 4 hours. The cells obtained after culturing were sonicated and centrifuged. The obtained supernatants were used for evaluation of ATP phosphoribosyltransferase activity. […] The protein in each supernatant was quantified to match the concentration, and the enzyme activity was measured after mixing the reactants according to the reaction composition shown in Table 8 below.
The activity was measured at 30° C. at a UV wavelength of 290 nm at 2 minute intervals for 30 minutes.

B1: hisG_SDM7: ATP-PRT variant containing H232T, R250H, T252L, E271K and S288P mutations (protein)
chain: MTDNTRLRIAMQKSGRLSDDSRELLARCGIKINLHTQRLIAMAENMPIDILRVRDDDIPGLVMDGVVDLGIIGENVLEEELLNRRAQGEDPRYFTLRRLDFGGCRLSLATPVDEAWDGPLSLNGKRIATSYPHLLKRYLDQKGISFKSCLLNGSVEVAPRAGLADAICDLVSTGATLEANGLREVEVIYRSKACLIQRDGEMEESKQQLIDKLLTRIQGVIQARESKYIMMTAPTERLDEVIALLPGAEHPLILPLAGDQQRVAMHMVSSKTLFWETMEKLKALGASPILVLPIEKMME
modifications: hisG_SDM7
notes: ATP-PRT variant containing H232T, R250H, T252L, E271K and S288P mutations
  Resistance to activity inhibition by histidine: best resistance
